# Results as given in the supplement of paper PMC9112550, “Optimization of the antimicrobial peptide Bac7 by deep mutational scanning” (BMC Biology, 2022).
# Tested on: Escherichia coli TOP10
# Assay: shrunken log2 fold change of peptide-encoding DNA abundance (4.5 h post-induction vs induction); higher = less antimicrobial activity (less host growth inhibition)
# Settings: time post-induction: 4.5 h; library: site-saturation at positions 5, 18, 19, 20
# 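Note: peptides expressed intracellularly from a pBAD plasmid library in pooled LB shake-flask culture, induced with 0.3% L-arabinose, DNA abundance read by NGS, three biological replicates, DESeq2 with apeglm shrinkage.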
row,Sequence,shrunken log2 fold change
1,RRIRIRPPRLPRPRPRPERKPRP,0.00827
2,RRIRHRPPRLPRPRPRPSNQPRP,-0.616
3,RRIRYRPPRLPRPRPRPGMSPRP,-0.137
4,RRIRWRPPRLPRPRPRPSPHPRP,-0.0688
5,RRIRERPPRLPRPRPRPDYIPRP,-0.0061
6,RRIRVRPPRLPRPRPRPADDPRP,0.203
7,RRIRIRPPRLPRPRPRPCVPPRP,-0.162
8,RRIRIRPPRLPRPRPRPPTGPRP,0.209
9,RRIRARPPRLPRPRPRPQVEPRP,0.399
10,RRIRMRPPRLPRPRPRPMKDPRP,0.251
11,RRIRMRPPRLPRPRPRPVDIPRP,-0.0631
12,RRIRARPPRLPRPRPRPWAAPRP,0.239
13,RRIRARPPRLPRPRPRPWAMPRP,0.0453
14,RRIRDRPPRLPRPRPRPWLHPRP,-0.00955
15,RRIRYRPPRLPRPRPRPDCWPRP,-0.105
16,RRIRLRPPRLPRPRPRPLPEPRP,0.39
17,RRIRYRPPRLPRPRPRPCWVPRP,-0.158
18,RRIRYRPPRLPRPRPRPVEPPRP,-0.384
19,RRIRHRPPRLPRPRPRPRDSPRP,0.0922
20,RRIRSRPPRLPRPRPRPQLHPRP,-0.175
21,RRIRMRPPRLPRPRPRPQYQPRP,-0.00342
22,RRIRLRPPRLPRPRPRPMTLPRP,-0.156
23,RRIRNRPPRLPRPRPRPYETPRP,-0.0276
24,RRIRMRPPRLPRPRPRPILYPRP,-0.0871
25,RRIRHRPPRLPRPRPRPAFEPRP,-0.0402

row,Sequence,shrunken log2 fold change
1,RRIRVRPPRLPRPRPRPADLPRP,0.0387
2,RRIRHRPPRLPRPRPRPVLWPRP,0.234
3,RRIRYRPPRLPRPRPRPSFGPRP,-0.522
4,RRIRSRPPRLPRPRPRPGPTPRP,0.788
5,RRIRPRPPRLPRPRPRPTYVPRP,0.0486
6,RRIRPRPPRLPRPRPRPADKPRP,0.0949
7,RRIRERPPRLPRPRPRPCCCPRP,0.15
8,RRIRRRPPRLPRPRPRPTYAPRP,0.218
9,RRIRDRPPRLPRPRPRPRFQPRP,0.491
10,RRIRIRPPRLPRPRPRPFNYPRP,-0.149
11,RRIRYRPPRLPRPRPRPAWFPRP,-0.0816
12,RRIRPRPPRLPRPRPRPGLKPRP,0.211
13,RRIRTRPPRLPRPRPRPHEMPRP,0.0124
14,RRIRYRPPRLPRPRPRPMSSPRP,-0.0121
15,RRIRFRPPRLPRPRPRPEESPRP,0.195
16,RRIRLRPPRLPRPRPRPEALPRP,-0.00171
17,RRIRVRPPRLPRPRPRPFDQPRP,-0.365
18,RRIRRRPPRLPRPRPRPECQPRP,0.253
19,RRIRQRPPRLPRPRPRPWWVPRP,-0.0321
20,RRIRSRPPRLPRPRPRPVDRPRP,0.0715
21,RRIRDRPPRLPRPRPRPLPYPRP,-0.0311
22,RRIRSRPPRLPRPRPRPNRQPRP,-0.403
23,RRIRPRPPRLPRPRPRPMPQPRP,-0.0158
24,RRIRHRPPRLPRPRPRPRLGPRP,0.143
25,RRIRVRPPRLPRPRPRPMIPPRP,-0.319

row,Sequence,shrunken log2 fold change
1,RRIRWRPPRLPRPRPRPCKNPRP,-0.0451
2,RRIRKRPPRLPRPRPRPAHKPRP,0.0404
3,RRIRPRPPRLPRPRPRPKIEPRP,0.0313
4,RRIRIRPPRLPRPRPRPNNTPRP,-1.09
5,RRIRVRPPRLPRPRPRPEKIPRP,-0.191
6,RRIRDRPPRLPRPRPRPHAKPRP,0.0435
7,RRIRPRPPRLPRPRPRPCPNPRP,-0.0908
8,RRIRKRPPRLPRPRPRPKQTPRP,0.00774
9,RRIRWRPPRLPRPRPRPVMLPRP,-0.0383
10,RRIRVRPPRLPRPRPRPKDSPRP,-0.327
11,RRIRNRPPRLPRPRPRPHASPRP,0.065
12,RRIRNRPPRLPRPRPRPGMGPRP,0.307
13,RRIRCRPPRLPRPRPRPIHIPRP,-0.893
14,RRIRMRPPRLPRPRPRPEPRPRP,1.5
15,RRIRMRPPRLPRPRPRPQLWPRP,0.998
16,RRIRHRPPRLPRPRPRPRNSPRP,-0.05
17,RRIRKRPPRLPRPRPRPCYIPRP,-0.0235
18,RRIRLRPPRLPRPRPRPPQPPRP,0.816
19,RRIRTRPPRLPRPRPRPSTGPRP,-0.285
20,RRIRERPPRLPRPRPRPCEYPRP,-0.0121
21,RRIRDRPPRLPRPRPRPTWNPRP,-0.07
22,RRIRKRPPRLPRPRPRPCQRPRP,-0.00088
23,RRIRCRPPRLPRPRPRPCSQPRP,-0.256
24,RRIRPRPPRLPRPRPRPIGRPRP,-0.0114
25,RRIRPRPPRLPRPRPRPWRGPRP,0.344
